The record followed here is patent US20250136677A1 (ZOETIS SERVICES, published 2025).

The target in experiment [1] is T1, wildtype feline IL-31 protein (Feline_IL31_wildtype) (feline).
T1 construct: Full length feline IL-31 with C-terminal His tag, secreted from ExpiCHO cells; also called fIL-31
T1 chain: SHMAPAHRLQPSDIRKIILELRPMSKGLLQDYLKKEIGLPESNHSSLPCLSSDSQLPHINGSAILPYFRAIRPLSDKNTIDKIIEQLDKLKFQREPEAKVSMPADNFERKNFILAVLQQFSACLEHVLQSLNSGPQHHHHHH
Nature of the experiment: Biacore, feline IL-31 chip, mAb 100 nM, share of points within parent mean +/-3 SD. Also noted: key: % of mutant data points within parent mAb mean ±3 SD. The source says: The region of an antibody responsible for antigen recognition represents the paratope. A paratope is created by a combination of amino acids in the complementarity determining regions (CDRs) of both the heavy and light chain variable regions. The binding between antibody and antigen is often mediated by side chains of CDR residues with side chains or carbohydrate moieties of the antigen. To help define critical side chains involved in antibody recognition alanine scanning mutagenesis was performed on each CDR residue in both the heavy and light chain. These mutants were then individually tested for the ability to bind feline IL-31 using the biacore and evaluated for inhibition of IL-31-mediated signaling in the FCWF-4 cell based assay.
The mean response unit of four replicates of the parent mAb+/−3 standard deviations was used to generate parameters to define a threshold of response units comprising both the on- and off-rates antibody binding (FIG. 22). The percentage of data points for each mutant fell within this threshold was then used to define a “% similarity score” (FIG. 23).
(In general: SPR reads the build-up and loss of mass on a sensor chip optically.)

Experiment [2] addresses T1, wildtype feline IL-31 protein …. In words: cell-based or functional assay.
For experiment [3] the target is unchanged. In words: SPR (Biacore), IL-31 on chip, 1:1 fit. An outline of the steps:
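IL-31 was amine-coupled (NHS/EDC) to the chip at 5 μg/mL and quenched with ethanolamine, and candidate mAbs were flowed over it as analytes. Binding curves were fitted to a 1:1 model.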

For experiment [4], the target named is T2, canine IL-31 protein (Canine_IL31) (canine).
T2 chain: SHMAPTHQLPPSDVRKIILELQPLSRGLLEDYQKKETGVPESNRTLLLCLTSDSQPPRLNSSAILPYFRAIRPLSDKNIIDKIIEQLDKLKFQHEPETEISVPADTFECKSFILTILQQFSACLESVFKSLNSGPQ
In words: SPR (Biacore), IL-31 on chip, 1:1 fit.

In experiment [5] the target is T1, wildtype feline IL-31 protein …. In words: cell-based or functional assay.

B1: A20 (antibody, V domains shown)
VH: QVLLVQSGAEVRTPGASVKIFCKASGYSFTSYTIHWLRQAPAQGLEWMGNINPTSGYTENNQRFKDRLTLTADTSTNTAYMELSSLRSADTAMYYCARWGFKYDGEWSFDVWGAGTTVTVSS
VL: EIQMTQSPSSLSASPGDRVTITCRASQGISIWLSWYQQKPGNIPKVLINKASNLHAGVPSRFSGSGSGTDFTLTISSLEPEDAATYYCLQSQTYPLTFGGGTKLEIK
As to B1, the “Binding Similarity score” value in experiment [1] was found to be 31.3. For the same molecule, in experiment [2], the “% Inhibition Relative to Parent (pSTAT, FCWF-4 cells)” value (“% Inhibition Relative to Parent” below) was 29%.

B2: A26 (antibody, V domains shown)
VH: QVLLVQSGAEVRTPGASVKIFCKASGYSFTSYTIHWLRQAPAQGLEWMGNINPTSGYTENNQRFKDRLTLTADTSTNTAYMELSSLRSADTAMYYCARWGFKYDGEWSFDVWGAGTTVTVSS
VL: EIQMTQSPSSLSASPGDRVTITCRASQGISIWLSWYQQKPGNIPKVLINKASNLHIGVPSRFSGSGSGTDFTLTISSLEPEDAATYYCLQSQTYALTFGGGTKLEIK
On to B2, for which the “Binding Similarity score” value in experiment [1] is 20.9. Moreover, the “% Inhibition Relative to Parent” value in experiment [2] was 43.7%.

B3: A24 (antibody, V domains shown)
VH: QVLLVQSGAEVRTPGASVKIFCKASGYSFTSYTIHWLRQAPAQGLEWMGNINPTSGYTENNQRFKDRLTLTADTSTNTAYMELSSLRSADTAMYYCARWGFKYDGEWSFDVWGAGTTVTVSS
VL: EIQMTQSPSSLSASPGDRVTITCRASQGISIWLSWYQQKPGNIPKVLINKASNLHIGVPSRFSGSGSGTDFTLTISSLEPEDAATYYCLQSQAYPLTFGGGTKLEIK
Take B3: the “Binding Similarity score” value in experiment [1] is 100. Besides, in experiment [2], the “% Inhibition Relative to Parent” value was 56.7%.

B4: A28 (antibody, V domains shown)
VH: QVLLVQSGAEVRTPGASVKIFCKASGYSFTSYTIHWLRQAPAQGLEWMGNINPTSGYTENNQRFKDRLTLTADTSTNTAYMELSSLRSADTAMYYCARWGFKYDGEWSFDVWGAGTTVTVSS
VL: EIQMTQSPSSLSASPGDRVTITCRASQGISIWLSWYQQKPGNIPKVLINKASNLHIGVPSRFSGSGSGTDFTLTISSLEPEDAATYYCLQSQTYPLAFGGGTKLEIK
With B4, the “Binding Similarity score” value in experiment [1] came to 42.2. Also, the “% Inhibition Relative to Parent” value in experiment [2] is 59.7%.

B5: A27 (antibody, V domains shown)
VH: QVLLVQSGAEVRTPGASVKIFCKASGYSFTSYTIHWLRQAPAQGLEWMGNINPTSGYTENNQRFKDRLTLTADTSTNTAYMELSSLRSADTAMYYCARWGFKYDGEWSFDVWGAGTTVTVSS
VL: EIQMTQSPSSLSASPGDRVTITCRASQGISIWLSWYQQKPGNIPKVLINKASNLHIGVPSRFSGSGSGTDFTLTISSLEPEDAATYYCLQSQTYPATFGGGTKLEIK
Turning to B5, the “Binding Similarity score” value in experiment [1] came out at 11.7. The “% Inhibition Relative to Parent” value in experiment [2] was determined as 7.2%.

B6: A23 (antibody, V domains shown)
VH: QVLLVQSGAEVRTPGASVKIFCKASGYSFTSYTIHWLRQAPAQGLEWMGNINPTSGYTENNQRFKDRLTLTADTSTNTAYMELSSLRSADTAMYYCARWGFKYDGEWSFDVWGAGTTVTVSS
VL: EIQMTQSPSSLSASPGDRVTITCRASQGISIWLSWYQQKPGNIPKVLINKASNLHIGVPSRFSGSGSGTDFTLTISSLEPEDAATYYCLQSATYPLTFGGGTKLEIK
Turning to B6, the “Binding Similarity score” value in experiment [1] came to 64.8. In addition, in experiment [2], the “% Inhibition Relative to Parent” value amounted to 29.2%.

B7: A25 (antibody, V domains shown)
VH: QVLLVQSGAEVRTPGASVKIFCKASGYSFTSYTIHWLRQAPAQGLEWMGNINPTSGYTENNQRFKDRLTLTADTSTNTAYMELSSLRSADTAMYYCARWGFKYDGEWSFDVWGAGTTVTVSS
VL: EIQMTQSPSSLSASPGDRVTITCRASQGISIWLSWYQQKPGNIPKVLINKASNLHIGVPSRFSGSGSGTDFTLTISSLEPEDAATYYCLQSQTAPLTFGGGTKLEIK
As for B7, the “Binding Similarity score” value in experiment [1] amounted to 4.4. Further, the “% Inhibition Relative to Parent” value in experiment [2] worked out at 1.3%.

B8: mouse:canine 11E12 chimera (antibody)
heavy: QVQLQQSGAELVKPGASVKLSCKASGYTFKYYDINWVRQRPEQGLEWIGWIFPGDGGTKYNETFKGKATLTTDKSSSTAYMQLSRLTSEDSAVYFCARGGTSVIRDAMDYWGQGTSVTVSSASTTAPSVFPLAPSCGSTSGSTVALACLVSGYFPEPVTVSWNSGSLTSGVHTFPSVLQSSGLYSLSSMVTVPSSRWPSETFTCNVAHPASKTKVDKPVPKRENGRVPRPPDCPKCPAPEMLGGPSVFIFPPKPKDTLLIARTPEVTCVVVDLDPEDPEVQISWFVDGKQMQTAKTQPREEQFNGTYRVVSVLPIGHQDWLKGKQFTCKVNNKALPSPIERTISKARGQAHQPSVYVLPPSREELSKNTVSLTCLIKDFFPPDIDVEWQSNGQQEPESKYRTTPPQLDEDGSYFLYSKLSVDKSRWQRGDTFICAVMHEALHNHYTQESLSHSPGK
light: DIVLTQSPASLAVSLGQRATISCRASESVDNYGISFMHWYQQKPGQPPKLLIYRASNLESGIPARFSGSGSRTDFTLTINPVETDDVATYYCQQSNKDPLTFGAGTKLELKRNDAQPAVYLFQPSPDQLHTGSASVVCLLNSFYPKDINVKWKVDGVIQDTGIQESVTEQDKDSTYSLSSTLTMSSTEYLSHELYSCEITHKSLPSTLIKSFQRSEC
notes: Mouse variable regions on canine IgG constant regions; made in HEK 293 cells; also called canine chimeric form of 11E12
Turning to B8, in experiment [3], the affinity, expressed as Kd, was 0.248 nM; the koff (usually the first-order rate constant of dissociation) stood at 0.000108 s⁻¹; the kon (as a rule, a measure of how fast the partners come together) was found to be 437000 M⁻¹ s⁻¹. Moreover, in experiment [4], the Kd (commonly the equilibrium constant for the complex coming apart) was found to be 0.000826 nM, the off-rate (koff) was found to be 6.55e-07 s⁻¹ and the kon worked out at 793000 M⁻¹ s⁻¹. Also, the “IC50, inhibition of feline IL-31-induced STAT3 phosphorylation, feline FCWF4 cells” value in experiment [5] came out at 1.15 µg/mL.

B9: Feline 11E12 1.1 FW2 (antibody, V domains shown)
VH: QVLLVQSGAEVKKPGASVKIFCKASGYSFTYYDINWLRQAPEQGLEWMGWIFPGDGGTKYNETFKGRLTLTADTSTNTVYMELSSLRSADTAMYYCARGGTSVIRDAMDYWGQGALVTVSS
VL: EIQMTQSPSSLSASPGDRVTITCRASESVDNYGISFMHWYQQKPGQPPKLLIYRASNLESGVPSRFSGSGSGTDFTLTISSLEPEDAATYYCQQSNKDPLTFGQGT
notes: Feline 11E12 VL1 with the mouse FW2; Feline heavy and kappa constant regions
In experiment [3], B9 registered a Kd of 0.75 nM, a koff of 0.000639 s⁻¹ and a kon of 852000 M⁻¹ s⁻¹. In experiment [4], this molecule came in with a koff of 0.000318 s⁻¹ and a kon of 45200 M⁻¹ s⁻¹. In addition, in experiment [5], the “IC50, inhibition of feline IL-31-induced STAT3 phosphorylation, canine DH82 cells” value is 5.66 µg/mL and the “IC50, inhibition of feline IL-31-induced STAT3 phosphorylation, feline FCWF4 cells” value was 4.38 µg/mL.
